According to patent US20200325187A1 (Genentech, published 2020):
Positions count from the first letter of the chain named. Where two headings read alike, the source gives them in different places. Non-standard residues stand in square brackets, D forms with d. No end group written: not given here. Nle = CCCC[C@H](N)C(=O)O

B1: VEGF-D (ligand, human, UniProt O43915 93-201, looked up)
chain: FYDIETLKVIDEEWQRTQCSPRETCVEVASELGKSTNTFFKPPCVNVFRCGGCCNEESLICMNTSTSYISKQLFEISVPLTSVPELVPVKVANHTGCKCLPTAPRHPYS
B2: VEGF-C (ligand, human, UniProt P49767 103-227, looked up)
chain: TEETIKFAAAHYNTEILKSIDNEWRKTQCMPREVCIDVGKEFGVATNTFFKPPCVSVYRCGGCCNSEGLQCMNTSTSYLSKTLFEITVPLSQGPKPVTISFANHTSCRCMSKLDVYRQVHSIIRR
B3: PIGF-2 (ligand, human, UniProt P49763-3 19-170, looked up)
chain: LPAVPPQQWALSAGNGSSEVEVVPFQEVWGRSYCRALERLVDVVSEYPSEVEHMFSPSCVSLLRCTGCCGDENLHCVPVETANVTMQLLKIRSGDRPSYVELTFSQHVRCECRPLREKMKPERRRPKGRGKRRREKQRPTDCHLCGDAVPRR
notes: also called P1Gf-2; P1GF

Columns and labels:
[1] = test system: EETI-II
EETI-II, sequence (chain, as listed by the source): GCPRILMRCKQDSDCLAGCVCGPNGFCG

[2] = biological target: T1, Flt-4 (human, UniProt P35916 25-776, limits assumed); assay: plate ELISA, growth factor coated
T1 sequence (looked up): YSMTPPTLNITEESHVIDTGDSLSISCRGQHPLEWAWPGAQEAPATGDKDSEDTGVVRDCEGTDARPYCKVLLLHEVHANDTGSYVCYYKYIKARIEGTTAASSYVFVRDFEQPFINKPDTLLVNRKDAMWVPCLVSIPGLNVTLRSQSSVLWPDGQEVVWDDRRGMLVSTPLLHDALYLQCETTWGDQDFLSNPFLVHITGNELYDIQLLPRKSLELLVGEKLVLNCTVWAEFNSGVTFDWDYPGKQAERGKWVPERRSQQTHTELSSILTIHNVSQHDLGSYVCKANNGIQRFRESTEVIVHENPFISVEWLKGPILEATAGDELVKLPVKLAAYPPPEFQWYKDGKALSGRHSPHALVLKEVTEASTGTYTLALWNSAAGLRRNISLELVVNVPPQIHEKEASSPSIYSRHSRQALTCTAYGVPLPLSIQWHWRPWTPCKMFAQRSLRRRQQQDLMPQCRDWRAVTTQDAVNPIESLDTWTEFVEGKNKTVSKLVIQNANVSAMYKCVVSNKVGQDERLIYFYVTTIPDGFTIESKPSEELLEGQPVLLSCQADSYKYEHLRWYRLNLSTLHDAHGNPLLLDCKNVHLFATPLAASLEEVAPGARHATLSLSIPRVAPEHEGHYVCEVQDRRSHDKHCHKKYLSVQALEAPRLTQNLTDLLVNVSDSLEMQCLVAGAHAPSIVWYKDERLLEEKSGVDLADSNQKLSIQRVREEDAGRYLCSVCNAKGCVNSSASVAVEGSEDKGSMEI
Description: (§1) Binding specificity of each peptide was established by competition ELISA. […] After blocking with block buffer (PBS with 0.5% BSA and 0.05% TWEEN®20) for 2 hours at room temperature, the receptor-Fc fusions or biotinylated receptors were serially diluted using assay buffer (PBS with 0.5% BSA and 0.05% TWEEN®20) and incubated for 1 hour at room temperature. […] Competition ELISA was conducted in an identical fashion as described above except after blocking, a mixture of serially diluted peptide containing a constant concentration of receptor-Fc fusion or biotinylated receptor (concentration of receptor was set to EC₆₀) was added and incubated for 1 hour. All recombinant human proteins and antibodies were purchased from R &D Systems (Minneapolis, Minn.).

[3] = biological target: T2, hVEGF-A (8-109) (human), P15692; assay: spot phage ELISA; settings: remark: other sources report otherwise
T2 chain: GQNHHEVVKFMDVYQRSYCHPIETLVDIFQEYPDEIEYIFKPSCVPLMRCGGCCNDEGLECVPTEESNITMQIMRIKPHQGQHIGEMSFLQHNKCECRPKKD

[4] = biological target: T3, hVEGF-A (human, UniProt P15692-4 27-191, limits assumed); assay: cell-based or functional assay
[5] = biological target: T4, hVEGF-A (8-109) (human, UniProt P15692 214-315); assay: SPR
T4 sequence (looked up): T2 chain
Description: (§2) Depending on the format of the assay either a streptavidin sensor (SA) or a dextran-coated (CM5) sensor was utilized as described below.
(§3) Reaction was then quenched by addition of 10 molar excess of Glycine pH 8.0 and the sample was buffer exchanged into PBS using an Amicon 0.5 mL 3000 MWCO ultra-centrifugal filters (EMD Millipore). The biotinylation state of the protein was verified by LC-MS analysis. Biotinylated VEGF-A was then captured on the surface until a resonance unit (RU) signal of about ˜400. For immobilization of VEGF-A on CM5 sensor, the surface was first activated with a mixture of N-ethyl-N′-(3-dimethylaminopropyl)carbodiimide hydrochloride and N-hydroxysuccinimide (EDC/NHS) according to the supplier instructions. VEGF-A was then diluted into coupling buffer (0.1 M Acetate Buffer, pH 5.0) and injected until the signal reached about ˜400 RU followed by a wash with 1 M ethanolamine pH 8.0 to quench remaining activated sites.

[6] = biological target: human VEGF-A 165 (human, UniProt P15692-4 27-191); assay: SPR
Description: as §2, §3

[7] = biological target: T5, rat VEGF-A (rat, UniProt P16612-2 27-190, limits assumed); assay: SPR
T5 construct: also called rVEGF
T5 sequence (looked up): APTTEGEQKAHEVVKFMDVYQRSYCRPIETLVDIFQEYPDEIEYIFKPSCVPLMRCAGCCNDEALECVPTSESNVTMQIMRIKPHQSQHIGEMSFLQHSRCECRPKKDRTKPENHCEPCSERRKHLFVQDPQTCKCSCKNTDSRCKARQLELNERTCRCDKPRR
Description: as §2, §3

[8] = biological target: T6, rabbit VEGF-A (rabbit, UniProt G1T1L9 1-398); assay: SPR
T6 sequence: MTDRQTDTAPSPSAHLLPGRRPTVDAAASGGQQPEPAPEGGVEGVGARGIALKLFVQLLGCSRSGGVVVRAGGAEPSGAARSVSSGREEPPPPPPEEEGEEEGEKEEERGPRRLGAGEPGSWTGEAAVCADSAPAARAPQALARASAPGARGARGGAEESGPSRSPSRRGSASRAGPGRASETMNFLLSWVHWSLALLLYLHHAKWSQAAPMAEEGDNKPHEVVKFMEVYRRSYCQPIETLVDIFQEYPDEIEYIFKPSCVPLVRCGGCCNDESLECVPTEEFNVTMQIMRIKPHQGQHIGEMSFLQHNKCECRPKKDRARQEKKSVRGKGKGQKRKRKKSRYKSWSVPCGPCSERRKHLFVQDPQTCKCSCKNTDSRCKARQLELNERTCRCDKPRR
Description: as §2, §3

[9] = biological target: T7, mouse VEGF-A 164 (mouse, UniProt Q00731-2 27-190); assay: SPR
T7 construct: also called mouse 164
T7 sequence (looked up): T5 sequence (looked up) with A10S, V14I, V75I
Description: as §2, §3

[10] = biological target: T3, hVEGF-A; assay: KDR-VEGF competition ELISA
[11] = biological target: T3, hVEGF-A; assay: cell-based or functional assay; remark: listed apart in the source
[12] = biological target: T4, hVEGF-A (8-109); assay: SPR; remark: listed apart in the source
Description: as §2, §3

[13] = biological target: T8, hVEGF-A Q89A (human, UniProt P15692-4 34-135, Q89A); assay: SPR
T8 construct: position probably counted on the mature protein
T8 sequence (looked up): T2 chain with Q82A
Description: as §2, §3

[14] = biological target: T3, hVEGF-A; assay: SPR
Description: as §2, §3

[15] = biological target: T9, hVEGF-A Y21A (human, UniProt P15692-4 34-135, Y21A); assay: SPR
T9 construct: position probably counted on the mature protein
T9 sequence (looked up): T2 chain with Y14A
Description: as §2, §3

[16] = biological target: T10, hVEGF-A K48A (human, UniProt P15692-4 34-135, K48A); assay: SPR
T10 construct: position probably counted on the mature protein
T10 sequence (looked up): T2 chain with K41A
Description: as §2, §3

[17] = biological target: T3, hVEGF-A; assay: phage competition ELISA, soluble CKP
[18] = biological target: T4, hVEGF-A (8-109); assay: spot phage ELISA
Outline: (§4)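 Phage clones from four selection rounds were grown overnight at 37 °C with M13-KO7 helper phage. Bound phage was detected with anti-M13-HRP and TMB, with binding to BSA alone run in parallel as background.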

[19] = biological target: T4, hVEGF-A (8-109); assay: spot phage ELISA; remark: listed apart in the source
Outline: as §4

[20] = biological target: T3, hVEGF-A; assay: cell-based or functional assay; remark: listed apart in the source
[21] = biological target: Flt-1 (human, UniProt P17948 27-756, limits assumed); assay: plate ELISA, growth factor coated
Flt-1, sequence (P17948 27-756 limits assumed): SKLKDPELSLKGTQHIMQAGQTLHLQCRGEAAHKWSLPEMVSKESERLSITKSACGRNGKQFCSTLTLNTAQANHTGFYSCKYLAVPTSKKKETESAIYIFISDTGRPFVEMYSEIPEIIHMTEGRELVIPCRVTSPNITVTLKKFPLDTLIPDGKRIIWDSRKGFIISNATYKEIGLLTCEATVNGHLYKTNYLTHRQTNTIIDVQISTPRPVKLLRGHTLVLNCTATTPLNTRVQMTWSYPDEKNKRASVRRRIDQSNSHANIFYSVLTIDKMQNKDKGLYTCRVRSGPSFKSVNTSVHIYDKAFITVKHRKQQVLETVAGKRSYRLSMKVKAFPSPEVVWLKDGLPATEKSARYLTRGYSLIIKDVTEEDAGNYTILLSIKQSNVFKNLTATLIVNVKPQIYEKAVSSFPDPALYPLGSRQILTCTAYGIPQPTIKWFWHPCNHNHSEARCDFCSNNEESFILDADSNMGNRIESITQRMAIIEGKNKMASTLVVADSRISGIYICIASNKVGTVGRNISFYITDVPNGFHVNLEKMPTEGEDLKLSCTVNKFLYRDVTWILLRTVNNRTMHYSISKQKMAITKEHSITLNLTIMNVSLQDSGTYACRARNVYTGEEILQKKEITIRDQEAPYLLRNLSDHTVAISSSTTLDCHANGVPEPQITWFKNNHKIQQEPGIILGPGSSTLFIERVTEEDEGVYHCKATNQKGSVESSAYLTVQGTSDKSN
Description: as §1

[22] = biological target: T3, hVEGF-A; assay: SPR; remark: listed apart in the source
Description: as §2, §3

[23] = biological target: T4, hVEGF-A (8-109); assay: phage competition ELISA (clone on phage; the concentration varied on the axis is that of hVEGF (8-109))
[24] = biological target: T11, hVEGF-A (human), P15692; assay: cell-based or functional assay
T11 chain: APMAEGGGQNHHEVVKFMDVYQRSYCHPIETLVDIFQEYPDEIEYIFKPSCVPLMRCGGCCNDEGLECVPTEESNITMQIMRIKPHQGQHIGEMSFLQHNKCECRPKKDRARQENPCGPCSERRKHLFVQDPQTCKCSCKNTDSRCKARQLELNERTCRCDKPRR

Molecule	Kd [5] [µM]	Kd [6] [µM]	Kd [7] [µM]	Kd [8] [µM]	Kd [9] [µM]	IC50 [10] [µM]	Cellular IC50 [11] [µM]	Kd [13] [µM]	Kd [14] [µM]	Kd [15] [µM]	Kd [16] [µM]	other results
trypsin												trypsin protease activity, peptide substrate cleavage assay [1]: Unlike EETI-II, ... do not inhibit trypsin protease activity
B1												binding result [2]: binds
B2												binding result [2]: binds
GCQRTQPFWGCKQDSDCLAGCVCRWYQSCG (designed binder) [VEGF_CKP9.22]												ELISA [3]: 1.2; S/N vs BSA [3]: 17.2
GCDVMQPYWGCKQDSDCLAGCVCHWYNSCG (designed binder, also called EM63) [VEGF_CKP9.63]	0.281	0.382	0.524	0.311	0.289	0.0108	0.14	2	0.1	0.585	0.0284	Cellular IC50 [4]: 0.14 µM; Kd [12]: 0.1 µM; IC50 [17]: 0.146 µM; ELISA [18]: 2; S/N vs BSA [18]: 29.7
GCDVMQPYWGCGPDIDCLAGCVCHWYNSCG (designed binder, also called L2.9.63.12) [VEGF_CKP9.63.12]	0.0032	0.00432	0.00574	0.00254	0.0131	0.0007	0.00183	0.0365	0.00107	0.00984	0.00033	ELISA [19]: 2.6; S/N vs BSA [19]: 39.9; Cellular IC50 [20]: 0.00183 µM; FOLD [..] [..] TO VARIANT 9.54.90 [20]: 0.74 fold
B3												binding result [21]: binds
GCNIMLPFWGCKQDSDCLAGCVCQYYQSCG (designed binder, also called EM54) [VEGF_CKP9.54]	0.176	0.19	0.176	0.133	0.25	0.0058	0.188	1.88	0.055	0.317	0.022	Cellular IC50 [4]: 0.188 µM; kon [5]: 1.26e+06 M⁻¹ s⁻¹; Kd [22]: 0.044 µM; IC50 (read off the curve) [23]: ~0.004 µM; IC50 [17]: 0.45 µM; ELISA [18]: 2.1; S/N vs BSA [18]: 28.4
GCNI[Nle]LPFWGCGRDFECLAGCVCQYYQSCG (designed binder, cysteine pairing not given here) [9.54.90.M5.Nle]												Cellular IC50 [24]: 0.00195 µM
